# Measurements as given in publication PMC12249575.
# Target: EcSofic H194A mutant (Sofic from Escherichia coli H397) (Escherichia coli H397)
# Test: AUC; sedimentation velocity, 50,000 rpm, 12 °C; samples 0.8 mg/mL in 20 mM Tris-HCl pH 7.5, 100 mM NaCl, 1 mM DTT; SEDFIT
substance,measurement,value
EcSofic H194A mutant (Sofic from Escherichia coli H397) (enzyme),stoichiometry N,2
